Results as given in publication PMC5638241, “Chlorophyte aspartyl aminopeptidases: Ancient origins, expanded families, new locations, and secondary functions” (PLoS ONE, 2017).
Blank lines part the entries; values can stand above or below the molecule they belong to.

What was measured:
[1] = biological target: Arabidopsis thaliana aspartyl aminopeptidase 2, mature (without transit peptide), with N-terminal His6 (His6-DAP2) (Arabidopsis thaliana); assay: native gel or EMSA; series of native polyacrylamide gels (4, 4.5, 5 and 6% acrylamide) of Ni-NTA-purified His6-DAPs; masses from relative mobilities and retardation coefficients (Hedrick and Smith; Bryan), BSA and urease as mass standards
purified protein = substrate: N[C@@H](CC(=O)O)C(=O)Nc1ccc([N+](=O)[O-])cc1; assay: purified protein; type: biochemical, Arabidopsis thaliana; conditions: 50 mM Tris-HCl pH 8.0, enzyme pre-activated with 0.5 mM MnCl2
[2] = biological target: the molecule itself; assay: native gel or EMSA; series of native polyacrylamide gels (4, 4.5, 5 and 6% acrylamide) of Ni-NTA-purified His6-DAPs; masses from relative mobilities and retardation coefficients (Hedrick and Smith; Bryan), BSA and urease as mass standards

- stoichiometry N [1]: 12
Molecule: Arabidopsis thaliana aspartyl aminopeptidase 2, mature (without transit peptide), with N-terminal His6 (His6-DAP2) (enzyme)

B1: His6-DAP2 (mature AtDAP2) (Arabidopsis thaliana) (protein)
chain: ASIVGDLLDYLNESWTQFHATAEAKRQLLAAGFDLLSENEDWNLKPGGRYFFTRNMSCLVAFAVGEKYVPGNGFHAIAAHTDSPCLKLKPKSASSKSGYLMVNVQTYGGGLWHTWFDRDLSVAGRAIVRASDGSFVHRLVKVKRPLLRVPTLAIHLDRTVNSDGFKPNLETQLVPLLATKSDESSAESKDKNVSSKDAHHPLLMQILSDDLDCKVEDIVSLELNICDTQPSCLGGANNEFIFSGRLDNLASSFCALRALIDSCESSENLSTEHDIRMIALFDNEEVGSDSCQGAGAPTMFQAMRRIVSSLGNKQVTECTFDRAIRKSFLVSADMAHGVHPNFADKHEENHRPQLHKGLVIKHNANQRYATSGITSFLFKEVAKLHDLPIQEFVVRNDMGCGSTIGPILASGVGIRTVDCGIAQLSMHSVREICGTDDIDIAYRHFKAFYRSFSSVDKKLVVDD
notes: mature form without 63-residue transit peptide, N-terminal His6 fusion (pET28), E. coli BL21(DE3)pLysS, Ni-NTA; no tag removal mentioned
- Km (purified protein): 210 µM
- kcat/Km (purified protein): 3.47e+07 M⁻¹ s⁻¹

B2: Arabidopsis thaliana aspartyl aminopeptidase 1 with N-terminal His6 (His6-DAP1) (enzyme, UniProt Q9LST0 1-477, looked up)
chain: MDKSSLVSDFLSFLNASPTAFHAVDESKRRLLKAGYEQISERDDWKLEAGKKYFFTRNYSTIVAFAIGHKYVAGNGFHIIGAHTDSPCLKLKPVSKITKGGCLEVGVQTYGGGLWYTWFDRDLTVAGRVILKEEKAGSVSYSHRLVRIEDPIMRIPTLAIHLDRNVNTEGFKPNTQTHLVPVLATAIKAELNKTPAESGEHDEGKKCAETSSKSKHHPLLMEIIANALGCKPEEICDFELQACDTQPSILAGAAKEFIFSGRLDNLCMSFCSLKALIDATSSGSDLEDESGIRMVALFDHEEVGSNSAQGAGSPVMIDAMSHITSCFSSDTKVLKKAIQKSLLVSADMAHALHPNFMDKHEENHQPKMHGGLVIKHNANQRYATNAVTSFVFREIAEKHNLPVQDFVVRNDMGCGSTIGPILASSVGIRTVDVGAPQLSMHSIREMCAADDVKHSYEHFKAFFQEFTHLDAKLTIDV
notes: AtDAP1 (At5g60160), M18 aspartyl aminopeptidase of Arabidopsis thaliana ecotype Columbia; entire coding region of the DAP1 cDNA (nucleotides 86 to 1519 of NM_125409) cloned into pET28; Monomer 54.6 kDa as printed; also called AtDAP1; At5g60160; source: E. coli BL21[DE3]pLys, purified (Ni-NTA, 100-kDa MWCO Centricon); not shown: His6, N-terminal, kept; copies: 12
- Km (purified protein): 1250 µM
- stoichiometry N [2]: 12
